Like-named read-outs stand apart in the source and are kept apart here. Numbered stars: 1 amine (or outer) side, 2 acyl side, 3 side chain; on linkers, the order of the positions; unused ones are H or OH. Square brackets hold non-standard residues; d marks the D form. Ends that are not written are not given here. * marks the point of attachment. Fluorescein(5-Mal) = O=C1OC2(c3ccc(O)cc3Oc3cc(O)ccc32)c2ccc(N3C(=O)CC(*)C3=O)cc21; εLys = N[C@@H](CCCCN[*:1])C(=O)[*:2]
Key:
RBE4 cell monolayers [1] = tested on: RBE4 cell monolayers
RBE4 cell monolayers [2] = test: Transwell transendothelial transport across RBE4 cell monolayers (in vitro BBB model); settings: apical to basolateral and basolateral to apical, up to 120 minutes
[3] = target: T1, preformed Aβ 1-40 aggregates (Homo sapiens, UniProt P05067); test: Competitive binding of ^99mTc-peptide to preformed Aβ 1-40 aggregates with unlabeled competitor; settings: 1,000-fold molar excess of competitor
T1 construct: preformed Aβ 1-40 aggregates; purchased
T1 sequence (P05067 672-711): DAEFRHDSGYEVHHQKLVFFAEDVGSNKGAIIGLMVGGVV
Description: Binding assays are performed to determine the binding specificity of the peptide conjugate. For example, a preliminary radioassay of Aβ-binding is performed. For example, a conjugate consisting of radiolabeled ^99mTc-peptide conjugate is incubated with Aβ fibrils in PBS for about 1-3 hours. Bound ^99mTc-peptide conjugate is separated on a Centricon filter unit (with, for example a 100 KDa cut off) and washed several times with PBS buffer. Saturable binding is indicated by calculation of a Kd (affinity constant) as well known in the art to help evaluate the relative amount of specific binding as opposed to non-specific binding. […] Radiolabeled peptide conjugate that is displaceable to background with either 1,000-fold molar excess of unlabeled peptide conjugate or, for example, cold Re-peptide conjugate, supports receptor-like binding behavior of the peptide conjugate to Aβ fibrils. Binding of the lead ^99mTc-peptide to preformed Aβ 1-40 aggregates in presence of increasing equivalents of unlabeled competing peptide. The aggregate-bound ^99mTc-peptide was isolated from free labeled peptide by centrifugation using Centricon (100 kDa cutoff) filters. The concentration of aggregate bound ^99mTc-peptide was calculated on the basis of activity retained on the filters (FIG. 5). […] Each data point represents a mean of triplicate measurements.

[4] = Acute toxicity in mice after intravenous bolus injection; type: in vivo; settings: Balb/C male mice, intravenous bolus 14 mg/kg, up to several days post-injection
Description: Although absolute concentration of radiotracers in vivo is normally too low to cause any host toxicity, nevertheless host safety is a key determinant for any successful diagnostic agent. Therefore, using a Re-labeled peptide as a surrogate for a Tc-labeled peptide, acute toxicity in mice (Balb/C; male; 6-8wks old) was determined.

[5] = target: T2, Aβ 1-40 aggregates (Aβ fibrils) (Homo sapiens, UniProt P05067); test: Binding assay of ^99mTc-peptide with Aβ fibrils (Centricon filter separation); settings: PBS, RT, 90 min, mean of triplicate; read-out: Kd (saturable binding to Aβ fibrils)
T2 construct: preformed Aβ 1-40 aggregates; purchased
T2 sequence (P05067 672-711): as above
Description: Binding assays are performed to determine the binding specificity of the peptide conjugate. For example, a preliminary radioassay of Aβ-binding is performed. For example, a conjugate consisting of radiolabeled ^99mTc-peptide conjugate is incubated with Aβ fibrils in PBS for about 1-3 hours. Bound ^99mTc-peptide conjugate is separated on a Centricon filter unit (with, for example a 100 KDa cut off) and washed several times with PBS buffer. Saturable binding is indicated by calculation of a Kd (affinity constant) as well known in the art to help evaluate the relative amount of specific binding as opposed to non-specific binding. […]
Binding assays of ^99mTc-peptide with Aβ fibrils were performed in PBS. […] The concentration of aggregate-bound ^99mTc-peptide was calculated on the basis of activity retained on the filters. […]
Binding assays to preformed fibrils are performed using procedures as described in the literature (Klunk et al., 2001). […] The amount of activity incorporated in the fibrils is measured through γ-counting using previously published procedures (Zhen et al., 1999). […] The mixture is incubated at room temperature for 1.5 h, and the aggregate-bound ^99mTc-peptide and free radioactivity is separated by filtration through Centricon filtration units using a centrifuge. The aggregate-bound ^99mTc-peptide collected on filters is counted in a γ-counter. […]

[6] = tested on: amyloid plaques in brain sections; test: Staining of brain tissue sections of APPsw+/− and WT mice; design: species or system mouse; settings: 40 μm sections
Chain of amyloid plaques in brain sections (P05067 672-711 limits assumed): as the sequence (P05067 672-711) above
Source text: Staining experiments with cross sections of brain tissue from normal (WT) and APPsw+/− mice are suitable for evaluating target specificity of the peptide conjugate. For example, a candidate peptide conjugate is labeled with a fluorescent marker. A suitable marker is fluorescein-5-maleimide (FM; 3-equiv) in DMF, which labels the C-terminal thiol of the peptide. After a suitable reaction of peptide and FM at room temperature in the dark, the fluorescent-labeled peptide is purified, for example column-purified, requisite fraction eluted, combined, lyophilized and characterized through electron spray mass spectrometry. For tissue staining of brain sections of APPsw+/− mice (test) and WT mice (control), immunohistochemical staining of Aβ and for FM-peptide staining are performed according to published procedures (DeMattos et al., 2002; Holtzman et al., 2000). Rabbit-anti-pan Aβ antibody is used, for example, as a control, and visualized with anti-rabbit antibody conjugated with a fluorescent marker such as Alexa 568 (Molecular Probes). Staining of brain sections from normal and APPsw+/− mice are compared. Target specificity of the peptide is indicated by immunostaining of Aβ in APPsw+/− mice and no staining in WT mice.
Staining experiments with cross sections of brain tissue were also performed. […]

In the case of “^3H-Aβ1-40 peptide: full length tritiated Aβ1-40 peptide (SEQ. ID. NO.: 2)”, the “transwell transport / permeation across RBE4 cells” value (RBE4 cell monolayers [1]) is reported as “did not show any transwell transport”.

In the case of inulin [^14C-inulin], the “transwell transport / permeation across RBE4 cells” value (RBE4 cell monolayers [2]) is reported as “low transwell transport”.

With “Re-peptide: rhenium complex of peptide KKLVFFAεKGC, surrogate for the Tc-labeled peptide (KKLVFFA[εLys]GC; not fully specified (residue 7); printed as KKLVFFAεKGC; also: rhenium complex (peptide-based chelation core))” the “displacement of aggregate-bound ^99mTc-peptide by competitor” value [3] was “displaceable to background conditions” and the acute toxicity [4] was “nontoxic”.

For “^99mTc-peptide: peptide KKLVFFAεKGC (SEQ. ID. NO.: 1) radiolabeled with technetium-99m in its peptide-based chelation core (KKLVFFAKGC; not fully specified; conjugate chemistry not built)”, the Kd [5] was 352 ± 82 nM.

In the case of “Aβ-binding peptide coupled with FM: peptide labeled on the C-terminal thiol with fluorescein-5-maleimide (FM) (KKLVFFAKGC(Fluorescein(5-Mal)); not fully specified (residues 7, 8); printed as KKLVFFAεKGC)”, the “staining of Aβ plaques in brain sections of APPsw+/− mice” value ([6]; APPsw+/− mouse, 17 months old, FM-peptide 2 μM solution) is reported as “staining of plaques in the cortical region” and the “staining in brain sections of WT mice” value ([6]; control WT mouse (Bl/6; 13.5 months old)) is reported as “no staining”.

Source: patent publication US7803351B2, “Blood brain barrier permeation peptides” (priority 2004, dated 2010)
